# Measured values from publication PMC9239388 (Journal of Inflammation Research, 2022).
# Target: the molecule itself
# Assay: crystal structure
protein,measurement,value
"human anionic trypsin (TRY2), enterokinase activated, cleaved at the Arg122-Val123 bond (enzyme) chain 1: IVGGYICEENSVPYQVSLNSGYHFCGGSLISEQWVVSAGHCYKSRIQVRLGEHNIEVLEGNEQFINAAKIIRHPKYNSRTLDNDILLIKLSSPAVINSR chain 2: VSAISLPTAPPAAGTESLISGWGNTLSSGADYPDELQCLDAPVLSQAECEASYPGKITNNMFCVGFLEGGKDSCQGDSGGPVVSNGELQGIVSWGYGCAQKNRPGVYTKVYNYVDWIKDTIAANS",binding result,binds
